Results from the supplement of paper PMC7125110.
± gives the standard error. For part of these data: Variants at the floor of the assay were thinned out.

B1: glmS ribozyme (parent)
chain: AUAAAAGCGCCAGAACUACAGAAAUGUAGUUGACGAGGAGGAGGUUUAUCGAAUUUUCGGCGGAUGCCUCCAAA

Experiments:
Settings in all cases: with glucosamine-6-phosphate
[1] = variants of: B1; assay: kcat; higher = faster cleavage; RNA array
How it was run: (§1)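 Weighted Michaelis–Menten fits across concentrations supplied kcat and KM, based on kobs from one- or two-exponential decay fits to normalised per-tile medians. The data came from barcoded ribozyme variants transcribed in situ by E. coli RNA polymerase on sequenced MiSeq chips and tracked at 37 °C by a hybridised Cy3 probe. Glucosamine-6-phosphate (40 μM to 10 mM) in HEPES/KCl/Mg(OAc)2 buffer was flowed in.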

[2] = variants of: B1; assay: KM; higher = weaker cofactor use; RNA array
How it was run: as §1

[3] = variants of: B1; assay: self-cleavage kobs at 40 uM GlcN6P; higher = faster cleavage; RNA array
How it was run: as §1

[4] = variants of: B1; assay: self-cleavage kobs at 160 uM GlcN6P; higher = faster cleavage; RNA array
How it was run: as §1

[5] = variants of: B1; assay: self-cleavage kobs at 640 uM GlcN6P; higher = faster cleavage; RNA array
How it was run: as §1

[6] = variants of: B1; assay: self-cleavage kobs at 2500 uM GlcN6P; higher = faster cleavage; RNA array
How it was run: as §1

[7] = variants of: B1; assay: self-cleavage kobs at 10000 uM GlcN6P; higher = faster cleavage; RNA array
How it was run: as §1

Variant | kcat [1] [s⁻¹] | KM [2] [µM] | self-cleavage kobs at 40 uM GlcN6P [3] [s⁻¹] | self-cleavage kobs at 160 uM GlcN6P [4] [s⁻¹] | self-cleavage kobs at 640 uM GlcN6P [5] [s⁻¹] | self-cleavage kobs at 2500 uM GlcN6P [6] [s⁻¹] | self-cleavage kobs at 10000 uM GlcN6P [7] [s⁻¹]
AUAAAAGCGCCAGAACUACAGAAAUGUAGUUGACGAGGAGGAGGUAUAUCGAAUUUUCGGCGGAUGCCUCCAAA [U46A] | 0.00402 ± 0.00054 | 1880 ± 330 | 9.25e-05 ± 2.1e-06 | 0.000271 ± 1.3e-05 | 0.000926 ± 2.8e-05 | 0.00341 ± 0.00031 | 0.00344 ± 9.1e-05
AUAAAAGCGCCAGAACUACAGAAAUGUAGUUGACGAGGAGGAGGUAUAUCGAAUUUUCGGCGGAUUCCUCCAAA [U46A G66U] | 0.0037 ± 0.001 | 5940 ± 2100 | 5.04e-05 ± 2.3e-05 | 8.12e-05 ± 1.9e-05 | 0.000412 ± 7.3e-05 | 0.00111 ± 0.00027 | 0.00229 ± 0.00041
AUAAAAGCGCCAGAACUACAGAAAUGUAGUUGACGAGGAGGAGGUAUAUCGAAUUUUCGGCGGAUCCCUCCAAA [U46A G66C] | 0.00211 ± 0.0008 |  | 5.47e-05 ± 1.7e-05 | 0.000161 ± 4.3e-05 | 0.00053 ± 0.00011 | 0.000776 ± 0.00018 | 0.00237 ± 0.00038
AUAAAAGCGCCAGAACUACAGAAAUGUAGUUGACGAGGAGGAGGUAUAUCGAAUUUUCGGCGGAUGUCUCCAAA [U46A C67U] | 0.00326 ± 0.0007 | 2370 ± 780 | 9.11e-05 ± 2.1e-05 | 0.000165 ± 2.9e-05 | 0.000811 ± 0.00012 | 0.00173 ± 0.00027 | 0.00257 ± 0.00033
AUAAAAGCGCCAGAACUACAGAAAUGUAGUUGACGAGGAGGAGGUAUAUCGAAUUUUCGGUGGAUGCCUCCAAA [U46A C61U] | < 1e-05 |  |  | < 1e-05 | < 1e-05 | < 1e-05 | 
AUAAAAGCGCCAGAACUACAGAAAUGUAGUUGACGAGGAGGAGGUAUAUCGAAUUUUCGGCGGAUGCCUCAAAA [U46A C71A] | 0.00108 ± 0.00054 |  |  |  | 0.000259 ± 5.1e-05 | 0.000566 ± 0.00015 | 0.000724 ± 0.00023
AUAAAAGCGCCAGAACUACAGAAAUGUAGUUGACGAGGAGGAGGUAUAUCGAAUUUUCGGCAGAUGCCUCCAAA [U46A G62A] | < 1e-05 |  | < 1e-05 |  |  | < 1e-05 | 
AUAAAAGCGCCAGAACUACAGAAAUGUAGUUGACGAGGAGGAGGGUUAUCGAAUUUUCGGCGGAAGCCUCCAAA [U45G U65A] | 0.0042 ± 0.00043 | 1990 ± 290 | 8.89e-05 ± 2.1e-05 | 0.000296 ± 5.3e-05 | 0.001 ± 0.00012 | 0.00264 ± 0.0004 | 0.00326 ± 0.00059
AUAAAAGCGCCAGAACUACAGAAAUGUAGUUGACGAGGAGGAGGUAUAUCGAAUUUUCGGCGGAUGCCUACAAA [U46A C70A] | 0.000184 ± 2.2e-05 | 633 ± 260 |  |  | 0.000115 ± 2.6e-05 | 0.000146 ± 2.7e-05 | 0.000167 ± 2.9e-05
AUAAAAGCGCCAGAACUACAGAAAUGUAGUUGACGAGGAGGAGGUAUAUCGAGUUUUCGGCGGAUGCCUCCAAA [U46A A53G] | 0.00162 ± 0.00057 |  | 8.49e-05 ± 1.5e-05 | 0.000201 ± 3.7e-05 | 0.000508 ± 8.1e-05 | 0.00104 ± 0.00016 | 0.00261 ± 0.00051
AUAAAAGCGCCAGAACUACAGAAAUGUAGUUGACGAGGAGGAGGUAUAUCGAAUUUUCGGCGGCUGCCUCCAAA [U46A A64C] | 4.04e-05 ± 4.1e-06 |  | < 1e-05 |  |  |  | 
AUAAAAGCGCCAGAACUACAGAAAUGUAGUUGACGAGGAGGAGGUAUAUCGAAUUUUCGGCGGGUGCCUCCAAA [U46A A64G] | 0.00469 ± 0.0011 | 2700 ± 990 | 0.000102 ± 2.3e-05 |  | 0.000754 ± 0.00015 | 0.00242 ± 0.00047 | 0.00373 ± 0.00065
AUAAAAGCGCCAGAACUACAGAAAUGUAGUUGACGAGGAGGAGGUAUAUCGAAUUUUAGGCGGAUGCCUCCAAA [U46A C58A] | 2.63e-05 ± 4.4e-06 |  |  |  |  |  | 
AUAAAAGCGCCAGAACUACAGAAAUGUAGUUGACGAGGAGGAGGGUUAUCGAAUGUUCGGCGGAUGCCUCCAAA [U45G U55G] | 0.00804 ± 0.002 | 2970 ± 1000 | 0.000146 ± 1.5e-05 | 0.000304 ± 4.5e-05 | 0.00148 ± 0.00024 | 0.00365 ± 0.00057 | 0.00624 ± 0.00057
AUAAAAGCGCCAGAACUACAGAAAUGUAGUUGACGAGGAGGAGGUAUAUCGAAUUUUCGGCGGAUGCGUCCAAA [U46A C68G] | 2.56e-05 ± 5.1e-06 |  | < 1e-05 |  |  | 3.32e-05 ± 1.5e-05 | 
